Earlier results in US20190076452A1, “THERAPEUTIC COMBINATIONS FOR TREATING NEOPLASIA” (MEDIMMUNE LIMITED, priority 2014, published 2019).

Tested on: advanced melanoma
Conditions: compared to the standard of care (temozolomide or dacarbazine); cited from earlier work

B1: tremelimumab: human IgG2 monoclonal antibody highly selective for CTLA-4 (antibody)
VH: GVVQPGRSLRLSCAASGFTFSSYGMHWVRQAPGKGLEWVAVIWYDGSNKYYADSVKGRFTISRDNSKNTLYLQMNSLRAEDTAVYYCARDPRGATLYYYYYGMDVWGQGTTVTVSSASTKGPSVFPLAPCSRSTSESTAALGCLVKDYFPEPVTVSWNSGALTSGVH
VL: PSSLSASVGDRVTITCRASQSINSYLDWYQQKPGKAPKLLIYAASSLQSGVPSRFSGSGSGTDFTLTISSLQPEDFATYYCQQYYSTPFTFGPGTKVEIKRTVAAPSVFIFPPSDEQLKSGTASVVCLLNNFYPREAKV
  overall survival of patients: did not significantly increase
